# Measured values from paper PMC3616705 (Nucleic Acids Research, 2013).
# B1: Cex1p9-358 (N-terminal kinase-like domain of Cex1p), N-terminal His tag (domain or fragment, Saccharomyces cerevisiae, UniProt Q12453 9-358, looked up)
# chain: SISNFQFPYTIEETAITETALWQCFDGTRKADSLPVTVFKAKRSPENESLILNAVHKSKILKIPGLCTVLETFDSDPQSTFIVTERVVPFPWDNLGSLSQNKFGVELGISQLLATLGFLKNFVLGTLSKDSVFINIKGEWVLFGLELCSSKEGLSAFEFASRARSYYNIIGSQLPCEDPNTIDSMGLGLLIKSLMAPSCLPKDWIVNVNMISDGKITIENFRKRLENTETWRSNPLINFYQELRELHIKDPQGKLVVMSNLENLYLESREIFRNLTPGMIENFIIPELCEIIKLLMTQSISSAASPIGMNFNASHKLVPFLAIVLDLTSETNTFPVGFNDLITQSFKLPD
# B2: wild-type, full-length Cex1p (cytoplasmic export protein), N-terminal His tag (natural protein, Saccharomyces cerevisiae, UniProt Q12453 1-761, looked up)
# chain: MNFSSIFKSISNFQFPYTIEETAITETALWQCFDGTRKADSLPVTVFKAKRSPENESLILNAVHKSKILKIPGLCTVLETFDSDPQSTFIVTERVVPFPWDNLGSLSQNKFGVELGISQLLATLGFLKNFVLGTLSKDSVFINIKGEWVLFGLELCSSKEGLSAFEFASRARSYYNIIGSQLPCEDPNTIDSMGLGLLIKSLMAPSCLPKDWIVNVNMISDGKITIENFRKRLENTETWRSNPLINFYQELRELHIKDPQGKLVVMSNLENLYLESREIFRNLTPGMIENFIIPELCEIIKLLMTQSISSAASPIGMNFNASHKLVPFLAIVLDLTSETNTFPVGFNDLITQSFKLPDRQVRFLLLIYLPKLIGPLSKSEISSRIYPHFIQGLTDSDATLRLQTLKTIPCIVSCLTERQLNNELLRFLAKTQVDSDVEIRTWTVIIISKISTILSTSVGNRSNILATAFTKSLKDPQVKPRLAALYGLEKSIELFDVNTIANKILTVIAPGLLDKSPIVRGRAKILFEEYLEKLEKEAQLIQTNDSTADSEDVKDIDFENYGCDEEDMNKEDNLLAAQFLNNLRLNSPSATTPSNITESEIDSAQDGSGWDDLSDTDGFITNGTTESFDETTNPVTTASTPKLFGKPIKINKSWNDELNDDGWIQDESGPSKVPQKHTRPQNSTLAKSIAPSSRLSIKKKKTTILAPRNIASNSTVTTKSSLSNKTARSKPISSIRGSVTKKGNVDGWDDDGDSDSWDTNW
# B3: Cex1pΔC-SER (residues 9-564, E535A/K536A/E537A) with N-terminal His tag, as used in the pull-down (domain or fragment, Saccharomyces cerevisiae, UniProt Q12453 9-564, looked up)
# chain: SISNFQFPYTIEETAITETALWQCFDGTRKADSLPVTVFKAKRSPENESLILNAVHKSKILKIPGLCTVLETFDSDPQSTFIVTERVVPFPWDNLGSLSQNKFGVELGISQLLATLGFLKNFVLGTLSKDSVFINIKGEWVLFGLELCSSKEGLSAFEFASRARSYYNIIGSQLPCEDPNTIDSMGLGLLIKSLMAPSCLPKDWIVNVNMISDGKITIENFRKRLENTETWRSNPLINFYQELRELHIKDPQGKLVVMSNLENLYLESREIFRNLTPGMIENFIIPELCEIIKLLMTQSISSAASPIGMNFNASHKLVPFLAIVLDLTSETNTFPVGFNDLITQSFKLPDRQVRFLLLIYLPKLIGPLSKSEISSRIYPHFIQGLTDSDATLRLQTLKTIPCIVSCLTERQLNNELLRFLAKTQVDSDVEIRTWTVIIISKISTILSTSVGNRSNILATAFTKSLKDPQVKPRLAALYGLEKSIELFDVNTIANKILTVIAPGLLDKSPIVRGRAKILFEEYLEKLAAAAQLIQTNDSTADSEDVKDIDFENYGCD
# B4: Cex1pΔC-SER (residues 9-564, E535A/K536A/E537A), His tag removed (domain or fragment, Saccharomyces cerevisiae, UniProt Q12453 9-564, looked up)
# chain: B3 chain
# Biological target: Los1p·Gsp1p export complex (GST-Los1p together with GST-Gsp1p on glutathione resin) (yeast, UniProt P33418 1-1100; P32835 1-219)
# Test: pull-down
row,binding result,Binder
1,binds,B1
2,binds,B2
3,binds,B3

# Biological target: the molecule itself
# Test: AUC
row,Binder,stoichiometry N
1,B1,2
2,B2,2
3,B4,2
